Laboratory results taken from publication PMC10670289, “Characterization and Molecular Dynamics Simulation of a Lipase Capable of Improving the Functional Characteristics of an Egg-Yolk-Contaminated Liquid Egg White” (Foods, 2023).

Columns and labels:
Test in all cases: purified protein
Format in all cases: biochemical, Bacillus subtilis
Conditions in all cases: 30 °C, pH 9.0
purified protein [1] = substrate: CCCCCCCCCCCC(=O)Oc1ccc([N+](=O)[O-])cc1
purified protein [2] = substrate: CCCCCCCC(=O)Oc1ccc([N+](=O)[O-])cc1
purified protein [3] = substrate: CCCCCCCCCCCCCCCC(=O)Oc1ccc([N+](=O)[O-])cc1
purified protein [4] = substrate: CCCCCC(=O)Oc1ccc([N+](=O)[O-])cc1
purified protein [5] = substrate: CCCCCCCCCCCCCCCCCC(=O)Oc1ccc([N+](=O)[O-])cc1
purified protein [6] = substrate: CCCCCCCCCC(=O)Oc1ccc([N+](=O)[O-])cc1
purified protein [7] = substrate: CCCCCCCCCCCCCC(=O)Oc1ccc([N+](=O)[O-])cc1

B1: Lip-IM (Bacillus subtilis subsp. subtilis str. 168) (protein)
chain: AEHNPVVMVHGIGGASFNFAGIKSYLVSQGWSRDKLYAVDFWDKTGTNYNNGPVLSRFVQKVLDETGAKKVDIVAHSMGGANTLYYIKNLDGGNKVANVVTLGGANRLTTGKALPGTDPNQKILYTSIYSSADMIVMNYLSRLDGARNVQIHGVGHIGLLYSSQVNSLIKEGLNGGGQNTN
notes: 22 kDa by SDS-PAGE
For B1, the Km (purified protein [1]) was 5.96 ± 0.08 mM, the Vmax (purified protein [1]) was 204 µM/min and the Km (purified protein [2]) was 4.21 ± 0.09 mM. It also gave a Vmax (purified protein [2]) of 236 µM/min, a Km (purified protein [3]) of 9.26 ± 0.09 mM and a Vmax (purified protein [3]) of 150 µM/min. For the same protein, the Km (purified protein [4]) was 3.92 ± 0.06 mM, the Vmax (purified protein [4]) was 233 µM/min and the Km (purified protein [5]) was 6.26 ± 0.07 mM. It also gave a Vmax (purified protein [5]) of 292 µM/min, a Km (purified protein [6]) of 5.23 ± 0.04 mM and a Vmax (purified protein [6]) of 184 µM/min. It also gave a Km (purified protein [7]) of 5.12 ± 0.09 mM and a Vmax (purified protein [7]) of 214 µM/min.
